# Results reported in PMC4419837, “Purification and characterization of DR_2577 (SlpA) a major S-layer protein from Deinococcus radiodurans” (Frontiers in Microbiology, 2015).
# “And” between values parts separate entries of the source, which are not always exact repeats. Equal entries are not always repeated.
# B1: DR_2577 (SlpA), major S-layer protein from Deinococcus radiodurans (natural protein, UniProt Q9RRB6 23-1167, looked up)
# chain: APVSAPQVPALTDVPAGHWAKDAIDRLVSRGVILGYPDGTFRGTQNLTRYEAAIIIARLLDQMRDGETPAGMTAEDMTALQNAIQELAADLAALGVRVSDLEANAVSKDDFARLEARIEEVAAAGGEQGATEALQGQIDDLTARVDEYDALRADVDDNASSIAALNDLTVLLNQDILDLQDRVSAVEAAQADFVQRSDFDALGGRVTTVETRVETVNNSLTGRIAALERNAFSVKPSLTIGYSVSRTSRNFDVDRLFPLNADGTVANNAFTSGGIDTDTGAQRRDFGDFGNASDPVVAGAAGLYGFADGVSYTVYFTDGSTATFDGLNPADYKVPTGKVIDTTKGRNGFGFNNLARYKEGSTDIGISLGFDTSGQFSQVTSGTGGSLFSTAGRLQVNQIDLNFGLVTGLPSDAYVDTNGNGKKDDGEATGRGTYLGSGGTAAILRDPAGNVYRPVFFRFKNATTQFSVGNNPVIVTLGQQQKFYFSDYVFDNNYDGRGDGFTVTVDGSNVPVIGAWKPQIKGVYGSRSGLDGTAEAGYGVYYRGVRAQITPVGTLTAGIHYAQEGRDMFGAAQNTTSTPSDVTTYGADLHGKAFGVELHSEYATSRVRPNTANAAVQTSNAFYARVATRKDNLAFDLNTPAAKFGNDTFGVSLYDLNYRKIDAGYNNVAGISEYGYGSYSRTSAQNIAYNPDTGVTAPFANLDRQAYTDANNDGTSDRNADGTVVATNTKIGQMGFGVKAAANLGPVAIGGYYDTSTGANGDNANRMTEAGGSAKVAYSIFSLRGTYNTLDSNRPQIYRDAAGTQIIGDAKVRRYAVQADVTPGLGLFVGAYYRDVNVNGVRSTTDRGLLGRGYLASSFEPGVGNNAYRTGLRCADNNFGTGTRDIDGVGGVLNPAVNLDQSRTATCFTSYGVEAGHAGDNANALVKDLFFRVGYSRVYVPTTATATTGDFSGSVTYGDARYDRKVGVANVRLAGSFSTTNTQLDSRPAGTRGAVGLIVRTDPLENVPFRPQFNGQVGYYTADNRVAAGNYNANATKYGAGVVLNDFLLPQTKIGVRYDGYMAQNRQYTPFDGDGTQGYFSDANNNRRTNLNGVYVEGAYQDLIFSYGTYTLSQKDLNGVEYGSGINNGQPARGQTFKISYKVNF
# notes: DR_2577 (SlpA), S-layer protein of Deinococcus radiodurans R1; cysteines at residues 896 and 929; Native protein isolated from the bacterium; It infers that the dimers are held by an intermolecular disulfide bond, and only a computer prediction assigns that bond to Cys929
# Legend:
# [1] = molecular target: the molecule itself; experiment: SDS-PAGE; standard denaturation: Rotiload, not boiled and not treated with tris-2-carboxy-ethylphosphine; polyacrylamide/urea gel; mass estimated against prestained standard; dimer
# [2] = molecular target: the molecule itself; experiment: native gel or EMSA; BN-PAGE, 3-12% gradient gel, 205 V for 5 h at 4°C, about 0.1 ug protein from the main SEC peak; mass estimated against NativeMARK; hexamer
protein,measurement,setting,value
B1,stoichiometry N,[1],2.25 and 2.17
same,stoichiometry N,[2],6.22 and 5.95
